Experimental data published in patent publication US20190352664A1, “COMPOSITIONS AND METHODS FOR CONTROLLING GENE EXPRESSION” (priority 2017, published 2019).

B1: AT4G24750.1_1: uORF of AT4G24750.1; peptide SEQ ID NO: 26 (nucleic acid)
DNA: ATGAAGCCAAAACTATCCAATAACTCGAAATTGACTACTCTTTTCTTTTGTCTCTGTTGTTGA
modifications: listed as DNA, chemistry not fully specified
B2: AT5G49980.1_1: uORF of AT5G49980.1; peptide SEQ ID NO: 36 (nucleic acid)
DNA: ATGGAGACGAAGTGGAGAGAGAAAGCTCCCACTCTCTCACACCCCAAAGCTTCTTCTTCTTCTTCCTCTTCTTCCTCTTCCTCTTCTCTAATCTGA
modifications: listed as DNA, chemistry not fully specified
B3: AT5G15950.1_1: uORF of AT5G15950.1; peptide SEQ ID NO: 35 (nucleic acid)
DNA: ATGATGGAATCGAAAGCTGGTAATAAGAAGTCAAGCAGCAATAGTTCCTTATGTTACGAAGCACCCCTTGGTTACAGCATTGAAGACGTTCGTCCTTTCGGTGGAATCAAGAAATTCAAATCTTCTGTCTACTCCAACTGCGCTAAGAGGCCTTCCTGA
B4: AT5G15950.1: 5′ UTR of transcript; Adenosylmethionine decarboxylase family protein (nucleic acid)
DNA: ACAATATCACAAACTCGTTTGCTCTTTTCATCATTACTAAATCATAAGCGGCTCTCAAGTTCTTTAGGGTTTCGAGTTTTCTCAATCTCCTACCTGATTAAGGTTAATTTCTTATCTTGGATCAATAACAAGAGAATTATAACTCCGGATTGTAATCAATATTCCTCTACATAAAAAGCGTGAATGAGATTATGATGGAATCGAAAGCTGGTAATAAGAAGTCAAGCAGCAATAGTTCCTTATGTTACGAAGCACCCCTTGGTTACAGCATTGAAGACGTTCGTCCTTTCGGTGGAATCAAGAAATTCAAATCTTCTGTCTACTCCAACTGCGCTAAGAGGCCTTCCTGAGTACTAGCCAGTTCCCTCCATAGCTTTTCAATTACAACAATCTCCTTTTCTCAAAGCTCTGGTTCCCCAAATCCTCTCGTCTTTTGTTTGCCCTCACAACAACAACAACAACGCAGAG
B5: AT4G37925.1: 5′ UTR of transcript; subunit NDH-M of NAD(P)H:plastoquinone dehydrogenase complex (nucleic acid)
DNA: ATGGTTCTGTAACCGGACAACATCTCAAAACTTGTTCTGTTTTTTTTTTTTCATTTCTTAGACAGAAAA
modifications: listed as DNA, chemistry not fully specified
notes: 5′ UTR of transcript; subunit NDH-M of NAD(P)H:plastoquinone dehydrogenase complex
B6: AT5G49980.1: 5′ UTR of transcript; auxin F-box protein 5 (nucleic acid)
DNA: AAAAAATAATCCCCAAATAATGGAGACGAAGTGGAGAGAGAAAGCTCCCACTCTCTCACACCCCAAAGCTTCTTCTTCTTCTTCCTCTTCTTCCTCTTCCTCTTCTCTAATCTGAATCCAAAGCCTCTCTCTTT
B7: AT4G26080.1: 5′ UTR of transcript; Protein phosphatase 2C family protein (nucleic acid)
DNA: GAAGCAATTGTTGCATTAGCCTACCCATTTCCTCCTTCTTTCTCTCTTCTATCTGTGAACAAGGCACATTAGAACTCTTCTTTTCAACTTTTTTAGGTGTATATAGATGAATCTAGAAATAGTTTTATAGTTGGAAATTAATTGAAGAGAGAGAGATATTACTACACCAATCTTTTCAAGAGGTCCTAACGAATTACCCACAATCCAGGAAACCCTTATTGAAATTCAATTCATTTCTTTCTTTCTGTGTTTGTGATTTTCCCGGGAAATATTTTTGGGTATATGTCTCTCTGTTTTTGCTTTCCTTTTTCATAGGAGTCATGTGTTTCTTCTTGTCTTCCTAGCTTCTTCTAATAAAGTCCTTCTCTTGTGAAAATCTCTCGAATTTTCATTTTTGTTCCATTGGAGCTATCTTATAGATCACAACCAGAGAAAAAGATCAAATCTTTACCGTTA
B8: AT4G24750.1: 5′ UTR of transcript; Rhodanese/Cell cycle control phosphatase superfamily protein (nucleic acid)
DNA: GAGTCTGGTTCGAAAAGACTGCTTCAATGAAGCCAAAACTATCCAATAACTCGAAATTGACTACTCTTTTCTTTTGTCTCTGTTGTTGATTCGCAAAGGCGAAGATTATCCATCTTCTCAGTTACTCCTACTGGAACCAAAAGCTCAGAACCTTAAAAC
B9: AT1G19270.1: 5′ UTR of transcript; DA1 (nucleic acid)
DNA: CGTGGGGAACGTTTTTTCCTGGAAGAAGAAGAAGAAGAGCTCAACAAGCTCAACGACCAAAAAACTTCGGACACGAAGACTTTTTAATTCATTTCTCCTCTTTTGTTTTTTTCGTTCCAAAATATTCGATACTCTCGATCTCTTCTTCGTGATCCTCATTAAATAAAAATACGATTTTTATTCTTTTTTTGTGAGTGCACCAAATTTTTTGACTTTGGATTAGCGTAGAATTCAAGCACATTCTGGGTTTATTCGTGTATGAGTAGACATTGATTTTGTCAAAGTTGCATTCTTTTATATAAAAAAAGTTTAATTTCCTTTTTTCTTTTCTTTTCTCTTTTTTTTTTTTTTCCCCCATGTTATAGATTCTTCCCCAAATTTTGAAGAAAGGAGAGAACTAAAGAGTCCTTTTTGAGATTCTTTTGCTGCTTCCCTTGCTTGATTAGATCATTTTTGTGATTCTGGATTTTGTGGGGGTTTCGTGAAGCTTATTGGGATCTTATCTGATTCAGGATTTTCTCAAGGCTGCATTGCCGTATGAGCAGATAGTTTTATTTAGGCATT
B10: AT5G57460.1: 5′ UTR of transcript (nucleic acid)
DNA: GAAGATCTCATTTCTCTTTCTCCTTTTCTTCTCCGACGATTCTTCTCAGTTCTCAGATCTGATCGATTTCTTCATCAGATGTTTCAATCTAACCATTGAGATTGAATAGTCACCATTAGTAGAAGCTTCGAGATCAATTTCGAATCGGGATC
B11: AT5G14930.1: 5′ UTR of transcript; senescence-associated gene 101 (nucleic acid)
DNA: TATGGACTCTCGTTCTCAGACATTTATTTCTCTCAGTCTTACAATATAAATTTTCATTCTTACCATCCATAATTTTGTATTGTCTTCTCCACAGATCTATTCCAGCTCACGCC
modifications: listed as DNA, chemistry not fully specified
B12: AT5G11790.1: 5′ UTR of transcript; N-MYC downregulated-like 2 (nucleic acid)
DNA: AAACACAAAAAAACGAAGATAGCCATCGTTTTGGTGAGAGAAGAGAGAAGAGAGAAGAAGAAGGCCATGGAAAGATAATACTCTGCTTTTTTTTTAGAAATATACAGAGGAAATAAAGAGAGAGAGAAGGAG
B13: AT4G34460.1: 5′ UTR of transcript; GTP binding protein beta 1 (nucleic acid)
DNA: GACCCTCTTCTCTCTCTCTAGCTAGTCTCAGGTCAGAGAAGCCATCATCAACATTCAACAAGAGAGCCGTGTTTGTGTCTTGACTGATTCTTCTCTCAAGCTTTTTTAATCTCTCTCTCTTTTCCCACGTAATTCCCCCAAATCCATTCTTTCTAGGGTTCGATCTCCCTCTCTCAATCATGAACCTTCTTCTCTTCTAGACCCCACAAAGTTTCCCCCTTTTATTTGATCGGCGACGGAGAAGCCTAAGTCTGATCCCGGA
B14: AT4G38950.1: 5′ UTR of transcript; ATP binding microtubule motor family protein (nucleic acid)
DNA: AAGAACAAACAACTACCAAACTTGTAGGCAGTAGCAGGAGGAAGTGGGTGGGATTAACATTGTCATTTCTCTCTCTTTTTCTTTTACAAATCTTTCCGTTTTGTTTTCTTTTGGTTTTCCGGTGAGCACTGTTGTGTTTCCAATTCCGGCACTCTTTAGGGTTCCCTTTCAGAAGAAAACTTCACATTGTTGTTTCTCTCAACCGTGACATCTTGGATTACTACTTCTGACTACTTTCCTTTTTCATGTGCCCCAAAAGATAATAGTTACTTTTTCAAAATCTGGTTTTGTTGTTTGGGTTTGTGTCATTCATTGATAAAGTCACTAATGGAGAAGTACAAAACAATTGCAAAATTTCGAATCTGTGTTGTCATTGCTGAATTCTGTAGTGGATGTTTGCTTGCAGTTTAGAGCTTCGGAGTGCGAAGAGTGAGACACAAGAGGATTCTTTCTGGAACCGCATTATTCCCTTTAGAGGAGGAAGAAGAAGACAACTCACTCACAAGGAAAACAAAGGTTCCTCTGGTTACTCTGAAATATTCAAACCAATGGTGAGCAATTGGTAGCACTTGCTAAAGAAG
B15: AT4G32660.1: 5′ UTR of transcript; Protein kinase superfamily protein (nucleic acid)
DNA: AATTGGTGGATGTCGTCGCGGTTCGACCCCAAGGGATTTGGCCGGTAAAATTATTGGGAGTTGTCTTTCTCTTGCACTCTCTCTAGTTCCAAACCCTAGCAATTCCTCTGTTTTCACCATTTTCGGAGATTATCACCTTCTCCCCGATTCGCCGCCTTGTGATTACATCTACGTAAAGAGTTTCTGGTAGAAATTTTCCCTCTTTTAGCTGCAGATTGGCATCAGATTCCGTTCTGGATGTGTCGGTGATCGATTTTCCGCGTCGGTG
B16: AT4G32800.1: 5′ UTR of transcript; Integrase-type DNA-binding superfamily protein (nucleic acid)
DNA: ATTTCATAAATCATAGAGAGAGAGAGAGAGAGAGAGAGAGAGTTTGGAAACATTCCAAAACCAGAACTCGATATTATTTCACCAAAGAATGATAGAAACAAGAACTATCTTTTTATAAAACTCTTTACACCCCAAAAGAAAATGTCTCACTCGTTTTGCCTTATAATATTTCTTTCAACAACAACCCAAATCTACAAAAAATCCCAATAAAAAAAAACTTCAGTCTGTTTGACATTTTGTCGAACACTTGGACGGCATCACAAAAAGCTCTAAACTTTCTGACTACCA

system: Arabidopsis; assay: Ribo-seq and RNA-seq global translatome profiling (translational efficiency TE, mORF/uORF ribo-shift) upon elf18 treatment; assay type: in vivo; set-up: key to score (Ribo-shift): Up: ribo-shift up (i.e., increased mORF/uORF ratio); Down: ribo-shift down (i.e., decreased mORF/uORF ratio); settings: shift of mORF/uORF ratio, elf18 vs Mock; per uORF

**Q.** Which “score (Ribo-shift)” value does the source give for B1 here?
**A.** The value was “Down”.

**Q.** B2 was tested. Which “score (Ribo-shift)” value did it give?
**A.** The value was “Down”.

**Q.** Which “score (Ribo-shift)” value does the source give for B3 here?
**A.** The value was “Down”.

same assay, conditions: translational efficiency fold change, elf18 vs Mock; listed as shows 5′ UTR of the transcript

**Q.** Which “score (TE change)” value does the source give for B4 here?
**A.** Its value is “TEdown (389 genes displayed decreased TEfc (|z|≥1.5))”.

**Q.** With B5 as the molecule, how does the “score (TE change)” value read?
**A.** The value was “TEup (448 had increased TEfc)”.

**Q.** With B6 as the molecule, how does the “score (TE change)” value read?
**A.** The value was “TEdown (389 genes displayed decreased TEfc (|z|≥1.5))”.

**Q.** For B7, which “score (TE change)” value is on record?
**A.** The value was “TEdown (389 genes displayed decreased TEfc (|z|≥1.5))”.

**Q.** For B8, which “score (TE change)” value is on record?
**A.** Its value is “TEdown (389 genes displayed decreased TEfc (|z|≥1.5))”.

**Q.** How did the “score (TE change)” value turn out when B9 was run?
**A.** The value was “TEdown (389 genes displayed decreased TEfc (|z|≥1.5))”.

**Q.** For B10, which “score (TE change)” value is on record?
**A.** The value was “TEup (448 had increased TEfc)”.

**Q.** With B11 as the molecule, how does the “score (TE change)” value read?
**A.** The value was “TEdown (389 genes displayed decreased TEfc (|z|≥1.5))”.

**Q.** For B12, which “score (TE change)” value is on record?
**A.** The value was “TEdown (389 genes displayed decreased TEfc (|z|≥1.5))”.

**Q.** For B13, which “score (TE change)” value is on record?
**A.** The value was “TEdown (389 genes displayed decreased TEfc (|z|≥1.5))”.

**Q.** B14 was tested. Which “score (TE change)” value did it give?
**A.** The value was “TEdown (389 genes displayed decreased TEfc (|z|≥1.5))”.

**Q.** How did the “score (TE change)” value turn out when B15 was run?
**A.** Its value is “TEup (448 had increased TEfc)”.

**Q.** B16 was tested. Which “score (TE change)” value did it give?
**A.** Its value is “TEdown (389 genes displayed decreased TEfc (|z|≥1.5))”.
